Laboratory results from patent US20240287138A1, “CYCLIC PEPTIDES FOR INHIBITING TNF RECEPTOR 1 ACTIVITY” (Merck Sharp & Dohme LLC, priority 2023, published 2024).
Numbered stars: 1 amine (or outer) side, 2 acyl side, 3 side chain; on linkers, the order of the positions; unused ones are H or OH. Bridge positions count the residues as written; N and C are the ends. Square brackets hold non-standard residues; d marks the D form. Primed or numbered codes have the meaning given here. bhcLeu = (1R,3S)-3-aminocyclopentane-1-carboxylic acid, O=C([C@@H]1CC[C@H](N[*:1])C1)[*:2]; FX1 = N5-(Pyridin-3-yl)-L-glutamine, O=C(CC[C@H](N[*:1])C(=O)[*:2])Nc1cccnc1; Ala(2-carboxypyrimidin-5-yl) = N[C@@H](Cc1cnc(C(=O)O)nc1)C(=O)O; Trp(βS-Me,7-OMe) = COc1cccc2c([C@H](C)[C@H](N)C(=O)O)c[nH]c12; NEtdA = N-ethyl-D-alanine, CCN([C@H](C)C(=O)[*:2])[*:1]; Trp(βS-Me) = C[C@@H](c1c[nH]c2ccccc12)[C@H](N)C(=O)O; Trp(7-Cl) = N[C@@H](Cc1c[nH]c2c(Cl)cccc12)C(=O)O; Phe(4-CONH2) = NC(=O)c1ccc(C[C@H](N)C(=O)O)cc1; Phe(4-COOH) = N[C@@H](Cc1ccc(C(=O)O)cc1)C(=O)O; Trp(7-aza) = N[C@@H](Cc1c[nH]c2ncccc12)C(=O)O; Phe(4-CH2NH2) = NCc1ccc(C[C@H](N)C(=O)O)cc1; Pip(5R-OH) = O=C(O)[C@@H]1CC[C@@H](O)CN1; αMeW = C[C@](N)(Cc1c[nH]c2ccccc12)C(=O)O; Ala(2-furyl) = N[C@@H](Cc1ccco1)C(=O)O; 2Nal = N[C@@H](Cc1ccc2ccccc2c1)C(=O)O; Val(3-OH) = CC(C)(O)[C@H](N)C(=O)O; Pip(4-aza) = O=C(O)[C@@H]1CNCCN1; 3Pal = N[C@@H](Cc1cccnc1)C(=O)O; 4Pal = N[C@@H](Cc1ccncc1)C(=O)O; NMeE = CN[C@@H](CCC(=O)O)C(=O)O; dHyp = O=C(O)[C@H]1C[C@H](O)CN1; NMeS = CN[C@@H](CO)C(=O)O; αMeS = C[C@](N)(CO)C(=O)O; Nle = CCCC[C@H](N)C(=O)O; Pip2c = not defined here; dNMeA = CN[C@H](C)C(=O)O; Ahp′ = not defined here; Dap = NC[C@H](N)C(=O)O; Sar = CNCC(=O)O

B1: SEQ ID NO. 186 (peptide)
peptide: {CH2CO}-[Nle][4Pal][Pip(5R-OH)]W[NEtdA]N[4Pal][Trp(7-Cl)][αMeS][Phe(4-CONH2)]Y[Sar][Trp(βS-Me,7-OMe)]C-NH2
modifications: thioether N-14
SMILES: CCCC[C@@H]1NC(=O)CSC[C@@H](C(N)=O)NC(=O)[C@H]([C@@H](C)c2c[nH]c3c(OC)cccc23)NC(=O)CN(C)C(=O)[C@H](Cc2ccc(O)cc2)NC(=O)[C@H](Cc2ccc(C(N)=O)cc2)NC(=O)[C@](C)(CO)NC(=O)[C@H](Cc2c[nH]c3c(Cl)cccc23)NC(=O)[C@H](Cc2ccncc2)NC(=O)[C@H](CC(N)=O)NC(=O)[C@@H](C)N(CC)C(=O)[C@H](Cc2c[nH]c3ccccc23)NC(=O)[C@@H]2CC[C@@H](O)CN2C(=O)[C@H](Cc2ccncc2)NC1=O
B2: SEQ ID NO. 226 (peptide)
peptide: {CH2CO}-[Ahp′]Y[AlaPiperaz][Trp(βS-Me)][dP]N[4Pal][Trp(7-Cl)][αMeS][Phe(4-COOH)][3Pal][Sar][αMeW]C-NH2
modifications: thioether N-14; reading uncertain; also: printed as cyclo(ClAc-Ahp-Y-AlaPiperaz-SbMeW-dP-N-4Pal-Trp7Cl-aMeS-Phe4COOH-3Pal-Sar-aMeW-C)-NH2
B3: SEQ ID NO. 166 (peptide)
peptide: cyclo([bhcLeu][FX1][4Pal][NMeS]W[NMeE]N[4Pal][Trp(7-Cl)][αMeS][Phe(4-COOH)]Y[Sar][Trp(βS-Me,7-OMe)])
SMILES: COc1cccc2c([C@H](C)[C@@H]3NC(=O)CN(C)C(=O)[C@H](Cc4ccc(O)cc4)NC(=O)[C@H](Cc4ccc(C(=O)O)cc4)NC(=O)[C@](C)(CO)NC(=O)[C@H](Cc4c[nH]c5c(Cl)cccc45)NC(=O)[C@H](Cc4ccncc4)NC(=O)[C@H](CC(N)=O)NC(=O)[C@H](CCC(=O)O)N(C)C(=O)[C@H](Cc4c[nH]c5ccccc45)NC(=O)[C@H](CO)N(C)C(=O)[C@H](Cc4ccncc4)NC(=O)[C@H](CCC(=O)Nc4cccnc4)NC(=O)[C@@H]4CC[C@@H](C4)NC3=O)c[nH]c12
B4: SEQ ID NO. 237 (peptide)
peptide: {CH2CO}-[Ahp′][4Pal]S[Trp(βS-Me)][dP]N[Phe(4-COOH)][2Nal][αMeS][Phe(4-COOH)]H[Sar][αMeW]C-NH2
modifications: thioether N-14; reading uncertain; also: printed as cyclo(ClAc-Ahp-4Pal-S-SbMeW-dP-N-Phe4COOH-2Nal-aMeS-Phe4COOH-H-Sar-aMeW-C)-NH2
B5: SEQ ID NO. 264 (peptide)
peptide: {CH2CO}-[Nle]H[Pip2c][Trp(7-aza)][NMeE]N[4Pal][Trp(7-Cl)][αMeS][Phe(4-COOH)]Y[Sar][Trp(βS-Me,7-OMe)]C-NH2
modifications: thioether N-14; reading uncertain; also: printed as cyclo(ClAc-Nle-H-Pip2c-Trp7az-NMeE-N-4Pal-Trp7Cl-aMeS-Phe4COOH-Y-Sar-SbMeW7OMe-C)-NH2
B6: SEQ ID NO. 236 (peptide)
peptide: {CH2CO}-[Nle][4Pal][Pip(4-aza)]W[dP]N[Ala(2-furyl)][Trp(7-Cl)][αMeS][Phe(4-COOH)]Y[Sar][Trp(βS-Me,7-OMe)]C-NH2
modifications: thioether N-14
SMILES: CCCC[C@@H]1NC(=O)CSC[C@@H](C(N)=O)NC(=O)[C@H]([C@@H](C)c2c[nH]c3c(OC)cccc23)NC(=O)CN(C)C(=O)[C@H](Cc2ccc(O)cc2)NC(=O)[C@H](Cc2ccc(C(=O)O)cc2)NC(=O)[C@](C)(CO)NC(=O)[C@H](Cc2c[nH]c3c(Cl)cccc23)NC(=O)[C@H](Cc2ccco2)NC(=O)[C@H](CC(N)=O)NC(=O)[C@H]2CCCN2C(=O)[C@H](Cc2c[nH]c3ccccc23)NC(=O)[C@@H]2CNCCN2C(=O)[C@H](Cc2ccncc2)NC1=O
B7: SEQ ID NO. 191 (peptide)
peptide: cyclo([bhcLeu][Nle][4Pal][Pip(5R-OH)]W[dHyp]N[Phe(4-COOH)][Trp(7-Cl)][αMeS][Phe(4-CONH2)][Ala(2-carboxypyrimidin-5-yl)][Sar][Trp(βS-Me,7-OMe)])
SMILES: CCCC[C@@H]1NC(=O)[C@@H]2CC[C@@H](C2)NC(=O)[C@H]([C@@H](C)c2c[nH]c3c(OC)cccc23)NC(=O)CN(C)C(=O)[C@H](Cc2cnc(C(=O)O)nc2)NC(=O)[C@H](Cc2ccc(C(N)=O)cc2)NC(=O)[C@](C)(CO)NC(=O)[C@H](Cc2c[nH]c3c(Cl)cccc23)NC(=O)[C@H](Cc2ccc(C(=O)O)cc2)NC(=O)[C@H](CC(N)=O)NC(=O)[C@H]2C[C@H](O)CN2C(=O)[C@H](Cc2c[nH]c3ccccc23)NC(=O)[C@@H]2CC[C@@H](O)CN2C(=O)[C@H](Cc2ccncc2)NC1=O
B8: SEQ ID NO. 178 (peptide)
peptide: cyclo([bhcLeu][Nle][4Pal][Pip(4-aza)]W[NMeE]N[4Pal][Trp(7-Cl)][αMeS][Phe(4-COOH)]H[Sar][Trp(βS-Me,7-OMe)])
SMILES: CCCC[C@@H]1NC(=O)[C@@H]2CC[C@@H](C2)NC(=O)[C@H]([C@@H](C)c2c[nH]c3c(OC)cccc23)NC(=O)CN(C)C(=O)[C@H](Cc2c[nH]cn2)NC(=O)[C@H](Cc2ccc(C(=O)O)cc2)NC(=O)[C@](C)(CO)NC(=O)[C@H](Cc2c[nH]c3c(Cl)cccc23)NC(=O)[C@H](Cc2ccncc2)NC(=O)[C@H](CC(N)=O)NC(=O)[C@H](CCC(=O)O)N(C)C(=O)[C@H](Cc2c[nH]c3ccccc23)NC(=O)[C@@H]2CNCCN2C(=O)[C@H](Cc2ccncc2)NC1=O
B9: SEQ ID NO. 255 (peptide)
peptide: {CH2CO}-[Nle][4Pal][Pip(4-aza)][Trp(7-aza)][NMeE]N[4Pal][Trp(7-Cl)][αMeS][Phe(4-COOH)]Y[Sar][Trp(βS-Me,7-OMe)]CGEE-NH2
modifications: thioether N-14
SMILES: CCCC[C@@H]1NC(=O)CSC[C@@H](C(=O)NCC(=O)N[C@@H](CCC(=O)O)C(=O)N[C@@H](CCC(=O)O)C(N)=O)NC(=O)[C@H]([C@@H](C)c2c[nH]c3c(OC)cccc23)NC(=O)CN(C)C(=O)[C@H](Cc2ccc(O)cc2)NC(=O)[C@H](Cc2ccc(C(=O)O)cc2)NC(=O)[C@](C)(CO)NC(=O)[C@H](Cc2c[nH]c3c(Cl)cccc23)NC(=O)[C@H](Cc2ccncc2)NC(=O)[C@H](CC(N)=O)NC(=O)[C@H](CCC(=O)O)N(C)C(=O)[C@H](Cc2c[nH]c3ncccc23)NC(=O)[C@@H]2CNCCN2C(=O)[C@H](Cc2ccncc2)NC1=O
B10: SEQ ID NO. 158 (peptide)
peptide: {CH2CO}-[Nle][4Pal][Pip2c][Trp(7-aza)][NMeE]N[4Pal][Trp(7-Cl)][αMeS][Phe(4-COOH)][TyrOCF3][Sar][Trp(βS-Me,7-OMe)]C-NH2
modifications: thioether N-14; reading uncertain; also: printed as cyclo(ClAc-Nle-4Pal-Pip2c-Trp7az-NMeE-N-4Pal-Trp7Cl-aMeS-Phe4COOH-TyrOCF3-Sar-SbMeW7OMe-C)-NH2
B11: SEQ ID NO. 217 (peptide)
peptide: {CH2CO}-[Nle]H[Val(3-OH)][Trp(7-aza)][NMeE]N[4Pal][Trp(7-Cl)][αMeS][Phe(4-COOH)]Y[Sar][Trp(βS-Me,7-OMe)]C-NH2
modifications: thioether N-14
SMILES: CCCC[C@@H]1NC(=O)CSC[C@@H](C(N)=O)NC(=O)[C@H]([C@@H](C)c2c[nH]c3c(OC)cccc23)NC(=O)CN(C)C(=O)[C@H](Cc2ccc(O)cc2)NC(=O)[C@H](Cc2ccc(C(=O)O)cc2)NC(=O)[C@](C)(CO)NC(=O)[C@H](Cc2c[nH]c3c(Cl)cccc23)NC(=O)[C@H](Cc2ccncc2)NC(=O)[C@H](CC(N)=O)NC(=O)[C@H](CCC(=O)O)N(C)C(=O)[C@H](Cc2c[nH]c3ncccc23)NC(=O)[C@H](C(C)(C)O)NC(=O)[C@H](Cc2c[nH]cn2)NC1=O

Biological target: C'-terminally 6His-tagged human soluble TNFR1 (sTNFR1, residues 1-211) (human)
Test: TR-FRET displacement of biotinylated peptide SEQ ID NO. 1 from sTNFR1-6His

IC50	Kd^app	Binder
0.5 nM	0.42 nM	B1
1.16 nM		B2
0.5 nM	0.44 nM	B3
0.55 nM		{CH2CO}-[Nle][4Pal][NMeS]W[NMeE]N[4Pal][Trp(7-Cl)][αMeS][Phe(4-COOH)][Phe3CONH2][Sar][Trp(βS-Me,7-OMe)]C-NH2 (thioether N-14) [SEQ ID NO. 270]
13 nM		B4
1.49 nM		B5
0.9 nM		B6
2.41 nM		{CH2CO}-[Nle][4Pal][Pip2c]W[dP]N[4Pal][Trp(7-Cl)][αMeS][Phe(4-COOH)]Y[dNMeA][Trp(βS-Me,7-OMe)]C-NH2 (thioether N-14; reading uncertain) [SEQ ID NO. 276]
0.95 nM		{CH2CO}-[LysN3][4Pal][Dap][Trp(βS-Me)][dP]N[4Pal][Trp(7-Cl)][αMeS][Phe(4-COOH)][Phe(4-CH2NH2)][Sar][αMeW]C-NH2 (thioether N-14) [SEQ ID NO. 245]
	0.18 nM	B7
	0.29 nM	B8
0.7 nM	1.01 nM	B9
1.79 nM		B10
1 nM	0.73 nM	B11
